Consider five molecules from US20240239892A1 (SUZHOU KANOVA BIOPHARMACEUTICAL, published 2024).

A word on the Kd: it is the constant that tells how readily two partners part at equilibrium. Read a high Kd as a looser complex. For orientation: koff means the rate constant with which the complex falls apart. High values mean fast dissociation, low ones slow dissociation. One may read the kon as the second-order rate constant of association. Higher therefore signals fast association. Usually EC50 stands for the concentration at which the effect is half-maximal.

Assay [1] has as its target T1, PD-1 (analyte of the SPR assay of Example 3) (human, UniProt Q15116 21-167, limits assumed).
T1 construct: also called human PD-1
Put plainly: SPR (Biacore 8K), antibody captured by anti-human Fc, PD-1 as analyte. On the procedure:
Anti-human Fc gamma specific antibody (Jackson ImmunoResearch #109-005-098) was immobilized onto the sensor chip using amine coupling method. […] After equilibration, PD-1 was injected for 200 seconds (association phase) followed by the injection of running buffer for 600s (dissociation phase). Responses of reference flow cell (flow cell 1) were subtracted from those of humanized antibodies flow cells during each cycle. The surface was regenerated before the injection of other humanized antibodies. The process was repeated until all antibodies are analyzed. The off-rates of humanized antibodies were obtained from fitting the experimental data locally to 1:1 interaction model using the Biacore 8K evaluation software. The antibodies were ranked by their dissociation rate constants (off-rates, kd).
(SPR reads the build-up and loss of mass on a sensor chip optically.)

In assay [2] the target is T2, chimeric PD-1 receptor on Jurkat cells (Jurkat/PD-1-CD3z/NF-luci cells) (human, UniProt Q15116 25-191; P20963 52-164, limits assumed). The assay can be described thus: cell-based or functional assay.
For assay [3], the target named is T3, his-tagged human PD-1 recombinant protein (PD-1/6His, in-house production, extracellular domain Pro21-Gln167) (human, UniProt Q15116 21-167).
T3 construct: range 21-167; also called human PD-1/His; not shown: 6His tag
Put plainly: ELISA, plate coated with human PD-1/His; human PD-1. On the procedure:
(§1) MaxiSorp 96-well plates (NUNC #449824) were coated with 2 μg/mL human PD-1/His (in-house production) or cynomolgus PD-1/His protein (ACROBiosystems #PD1-C5223) in 1× PBS (50 μL/well). Plates were incubated at 4° C. overnight. Coating solution was removed and plates were washed once with 200 μL/well PBST (1× PBS containing 0.05% tween-20). Then 200 μL/well blocking buffer (1× PBS with 0.05% tween-20, 3% BSA) was added and incubated at room temperature for 1 hour. Blocking buffer was removed and plates were washed with three times with 200 μL/well PBST. […] Plates were incubated at room temperature for 2 hours. Antibodies in the wells were removed and plates were washed three times with 200 μL/well PBST. Goat anti-human IgG (H&L)-HRP secondary antibody (Jackson Immuno Research #109-035-088) was diluted 1:5000 in 1× PBS and added to each well (50 μL/well). Plates were incubated at room temperature for 1 hour. Secondary antibody was removed and plates were washed five times with 200 μL/well PBST. 50 μL/well TMB (eBioscience #85-00-4201-56) was added and plates were incubated at room temperature for several minutes. Then 50 μL/well 2N H2SO4 was added to stop the reaction. Optical density was measured at 450 nm.
On the technique in general: An ELISA detects its analyte on a solid surface through an enzyme-linked reagent.

Assay [4] deals with T4, cynomolgus PD-1/His protein (ACROBiosystems #PD1-C5223) (cynomolgus, UniProt B0LAJ3 25-170).
T4 construct: Commercial protein
The assay can be described thus: ELISA, plate coated with cynomolgus PD-1/His. On the procedure:
as §1

Assay [5] concerns the target T2, chimeric PD-1 receptor on Jurkat cells …. The assay can be described thus: flow cytometry on human PD-1-expressing Jurkat cells. On the procedure:
Then cells were washed once by FACS buffer (PBS with 2% FBS) and incubated with Alexa Fluor 594 AffiniPure Goat Anti-human IgG secondary antibody (Jackson ImmunoResearch #109-585-088) at 4° C. for 30 minutes. After washed once by FACS buffer, cells were resuspended in 200 μL FACS buffer. The cells after staining were analyzed by BD LSRFortessa Flow Cytometer.
In general terms: A flow cytometer gives signals particle by particle.

T1 sequence (Q15116 21-167 limits assumed): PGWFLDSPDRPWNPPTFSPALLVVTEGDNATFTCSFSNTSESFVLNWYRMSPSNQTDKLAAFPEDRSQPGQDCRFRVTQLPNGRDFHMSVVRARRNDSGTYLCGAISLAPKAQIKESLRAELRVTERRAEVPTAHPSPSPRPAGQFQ
T2 sequence (Q15116 other isoform, or with tags, fused parts or gaps mutant limits assumed): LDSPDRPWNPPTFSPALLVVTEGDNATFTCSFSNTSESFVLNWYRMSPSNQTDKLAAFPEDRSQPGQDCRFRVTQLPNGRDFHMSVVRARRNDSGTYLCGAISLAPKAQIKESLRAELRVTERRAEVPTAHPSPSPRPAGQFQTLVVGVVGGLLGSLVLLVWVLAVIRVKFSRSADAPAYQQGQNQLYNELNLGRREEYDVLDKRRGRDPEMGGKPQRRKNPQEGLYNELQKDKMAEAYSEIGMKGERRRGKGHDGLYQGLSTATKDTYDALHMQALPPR
T4 sequence (B0LAJ3 entry or part of it limits assumed): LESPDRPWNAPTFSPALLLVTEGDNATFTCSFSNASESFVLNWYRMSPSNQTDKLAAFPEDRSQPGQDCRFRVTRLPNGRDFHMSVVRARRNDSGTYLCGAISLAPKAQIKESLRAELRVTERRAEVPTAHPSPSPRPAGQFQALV
T3 sequence (Q15116 21-167 limits assumed): as the sequence (Q15116 21-167 limits assumed) above

B1: VH6 + VL1 (antibody, human IgG1, kappa, V domains shown)
VH: EVQLVESGGGLVQPGGSLRLSCAASGFTFSSYGMSWVRQAPGKRLEWVAIISGGGRDIYYLDSVKGRFTISRDNSKNTLYLQMNSLRAEDTAVYYCSSPIYDAYSFAYWGQGTLVTVSS
VL: EIVMTQSPATLSVSPGERATLSCRASQTISNNLHWYQQKPGQAPRLLIYYASQSISGIPARFSGSGSGTEFTLTISSLQSEDFAVYYCQQSYSWPLTFGGGTKLEIKR
notes: Humanized full-length IgG expressed in HEK293; For SPR it was captured from culture medium through its Fc; also called HC1 + LC1
In assay [1], B1 returned an equilibrium dissociation constant (Kd) of 3.57 nM, a koff of 0.000404 s⁻¹ and an association rate constant (kon) of 113000 M⁻¹ s⁻¹.

B2: VH6 + VL6 (antibody, human IgG1, kappa, V domains shown)
VH: EVQLVESGGGLVQPGGSLRLSCAASGFTFSSYGMSWVRQAPGKRLEWVAIISGGGRDIYYLDSVKGRFTISRDNSKNTLYLQMNSLRAEDTAVYYCSSPIYDAYSFAYWGQGTLVTVSS
VL: EIVLTQSPATLSVSPGERATLSCRASQTISNNLHWYHQKPGQAPRLLIKYASQSISGIPSRFSGSGSGTDFTLTISSLQSEDFAVYFCQQSYSWPLTFGGGTKLEIKR
notes: Humanized full-length IgG expressed in HEK293; also called HC1 + LC2
For B2, in assay [1], the Kd was 0.812 nM, the koff was 0.000127 s⁻¹ and the kon came out at 156000 M⁻¹ s⁻¹.

B3: anti-PD-1 antibody VH7+VL6 (antibody, human IgG1, kappa, V domains shown)
VH: EVQLVESGGGLVQPGGSLRLSCAASGFTFSSYGMSWVRQAPGKGLEWVAIISGGGRDIYYLDSVKGRFTISRDNSKNNLYLQMNSLRAEDTAVYYCSSPIYDAYSFAYWGQGTLVTVSS
VL: EIVLTQSPATLSVSPGERATLSCRASQTISNNLHWYHQKPGQAPRLLIKYASQSISGIPSRFSGSGSGTDFTLTISSLQSEDFAVYFCQQSYSWPLTFGGGTKLEIKR
notes: also called HC2 + LC2
Turning to B3, in assay [2], the “EC50 (nM), inhibition of luciferase signal” value stood at 0.38 nM. In assay [3], the EC50 came to 0.1 nM. Besides, the midpoint of the response in assay [4], the EC50, lay at 0.4 nM. The EC50 in assay [5] was 2.16 nM. Moreover, in assay [1], the Kd came out at 1.41 nM, the dissociation rate constant (koff) came to 0.000218 s⁻¹ and the association rate constant (kon) stood at 154000 M⁻¹ s⁻¹.

B4: VH7 + VL1 (antibody, human IgG1, kappa, V domains shown)
VH: EVQLVESGGGLVQPGGSLRLSCAASGFTFSSYGMSWVRQAPGKGLEWVAIISGGGRDIYYLDSVKGRFTISRDNSKNNLYLQMNSLRAEDTAVYYCSSPIYDAYSFAYWGQGTLVTVSS
VL: EIVMTQSPATLSVSPGERATLSCRASQTISNNLHWYQQKPGQAPRLLIYYASQSISGIPARFSGSGSGTEFTLTISSLQSEDFAVYYCQQSYSWPLTFGGGTKLEIKR
notes: Humanized full-length IgG expressed in HEK293; also called HC2 + LC1
In assay [1], B4 returned a Kd of 3.04 nM, a koff of 0.000317 s⁻¹ and an on-rate (kon) of 104000 M⁻¹ s⁻¹.

B5: Chimeric VH + VL (antibody, human IgG1, kappa, V domains shown)
VH: EVKLVESGGGLVKPGGSLKLSCAASGFTFSSYGMSWVRQTPEKRLEWVAIISGGGRDIYYLDSVKGRFTISRDNAKNNLYLQMSSLRSEDTAFYYCSSPIYDAYSFAYWGQGTLVTVSA
VL: DIVLVQSPATLSVTPGDSVSLSCRASQTISNNLHWYHQKSHESPRLLIKYASQSISGIPSRFSGSGSGTDFTLSINSVETEDFGMYFCQQSYSWPLTFGAGTNLELKR
notes: also called Parental mouse VH+VL combined with human Fc; parental antibody
In assay [1], B5 showed a dissociation constant (Kd) of 0.787 nM, a koff of 0.000163 s⁻¹ and an on-rate constant (kon) of 207000 M⁻¹ s⁻¹.
